Measured values published in US20140286950A1 (Genentech, published 2014).

T1: N-terminal HIS-tagged human CD83 stably expressed on CHO cells (CHO-hCD83) (human, UniProt Q01151 20-205)
T1 construct: also called CHO cells expressing human CD83; not shown: N-terminal HIS tag
T1 sequence: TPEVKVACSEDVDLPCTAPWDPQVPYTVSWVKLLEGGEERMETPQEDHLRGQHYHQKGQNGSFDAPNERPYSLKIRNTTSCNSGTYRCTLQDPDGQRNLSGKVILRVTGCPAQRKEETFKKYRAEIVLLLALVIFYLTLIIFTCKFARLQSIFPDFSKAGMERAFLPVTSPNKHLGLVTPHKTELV

T2: N-terminal HIS-tagged mouse CD83 stably expressed on CHO cells (CHO-mCD83) (mouse, UniProt O88324 22-196)
T2 construct: whole, on cells; also called CHO cells expressing mouse CD83; not shown: N-terminal HIS tag
T2 sequence (looked up): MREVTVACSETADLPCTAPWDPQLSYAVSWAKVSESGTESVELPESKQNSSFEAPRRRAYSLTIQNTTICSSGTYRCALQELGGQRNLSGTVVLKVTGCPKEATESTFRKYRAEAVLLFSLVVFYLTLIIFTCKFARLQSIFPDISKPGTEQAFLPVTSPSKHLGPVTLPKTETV


Experiments:
[1] = molecular target: T1, N-terminal HIS-tagged human CD83 stably …; experiment: flow cytometry on CHO-hCD83 cells, anti-hamster IgG secondary
Method: (§1) The generated antibodies were assayed for their ability to bind human CD83 or mouse CD83 stably expressed on CHO cells. To generate an expression vector for the production of the stable cell lines, a DNA fragment encoding an N-terminal HIS-tagged human CD83 (hCD83) or an N-terminal HIS-tagged mouse CD83 (mCD83) was cloned into the neomycin-resistance plasmid, pRKneo (Crowley et al., Proc Natl Acad Sci USA., 90(11):5021-5025, 1993), at the XbaI and XhoI sites to produce hCD83.pRKneo or mCD83.pRKneo, respectively. CHO cells were transfected with hCD83.pRKneo or mCD83.pRKneo using Fugene (Roche) and the top 10% of CD83 positive cells were sorted by FACS then selected with G418 ([…]; GIBCO) to generate the stable CHO-hCD83 or CHO-mCD83 cell line, respectively. CHO-hCD83 and CHO-mCD83 cells were resuspended in a FACS buffer containing PBS/2% BSA/2 mM EDTA and incubated with anti-human CD83 antibodies or anti-mouse CD83 antibodies for 30 minutes on ice. Cells were washed with FACS buffer and then incubated with a fluorochrome conjugated anti-hamster IgG secondary antibody for 30 minutes on ice in the dark. Cells were washed with FACS buffer and analyzed by flow cytometry on a LSR II flow cytometer using FACSDiva software (Becton Dickinson). Data analysis and construction of diagrams was done using FlowJo v.9.4.11.

[2] = molecular target: T2, N-terminal HIS-tagged mouse CD83 stably …; experiment: flow cytometry on CHO-mCD83 cells, anti-hamster IgG secondary
Method: as §1

binding result [1] | binding result [2] | Binder
no binding | binds | anti-CD83 antibody 42C6 (antibody, V domains shown, also called 42C6 Anti-mouse CD83) VH: QVQLKESGPGLVKPSQSMSLTCSVNGFSITSRYWWTWIRQFPGKNLEWMGYISYSGGTSYNPSLKSRISITRDTSKNQFFLHLNSVTTADTATYYCARDLYGTYFDYWGQGTMVTVSS VL: QYELIQPKSVSESLGRTVTISCKRSSGNIGNNYVHWYQQHFGSSPKTVIYDDNKRPSGVPHRFSGSIDSSSNSASLTITDLQIEDEAEYYCQSAWVFGSGTKVTVL
no binding | binds | anti-CD83 antibody 39A2 (antibody, V domains shown, also called 39A2 Anti-mouse CD83) VH: QVQLKESGPGLVKPSQSMSLTCSVNGFSITSRYWWTWIRQFPGKNLEWMGYISYSGGTSYNPSLKSRISITRDTSKNQFFLHLNSVTTADTATYYCARDLYGTYFDYWGQGTLVTVSS VL: QYELIQPKSVSESLGRTVTISCKRSSGNIGNNYVHWYQQHFGSSPKTVIYDDNKRPSGVPHRFSGSIDSSSNSASLTITDLQIEDEAEYYCQSAWVFGSGTKVTVL
binds | binds | anti-CD83 antibody 60B10 (antibody, V domains shown, also called 60B10 Anti-human CD83) VH: QVQLKESGPGLVKPSQSLSLTCSVTGFSITTGGYWWTWIRQFPGQKLEWMGYIFSSGNTNYNPSIKSRISITRDTSKNQFFLQLNSVTTEGDTARYYCARAYGKLGFDYWGQGTLVTVSS VL: QPVLTQSPSASASLGNSVKITCTLSSQHSTYTIGWYQQHPDKAPKYVMYVNSDGSHSKGDGIPDRFSGSSSGAHRYLSISNIQPEDEADYFCGSSDSSGYVFGSGTQLTVL
